# Measured values as given in the supplement of paper PMC10567573.
# B1: CLPTM1 (parent)
# chain: LGCYAVYSLLYLEHKGWYSWVLSM
# B2: CIB1 (parent)
# chain: DLSRLVNCLTGEGEDTRLSASEMK
# Variants of: B1
# Experiment: protein stability index of a GFP-peptide fusion (GPS, HEK-293T) (PSI 1-6); higher = more stable
# Conditions: c terminus: a fixed tail appended
# 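Also: lentivirally expressed fusions sorted by FACS into six bins by GFP to DsRed ratio, PSI derived from sequencing read proportions per bin multiplied by bin number.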
row,Variant,protein stability index
1,LGCYAVYSLLYLEHKGWYSWVPSM [L22P],3.42
2,LGCYAVYSLLYLEHKGWYSWVWSM [L22W],2.58
3,LGCYAHYSLLYLEHKGWYSWVLSM [V6H],2.31
4,LGCYALYSLLYLEHKGWYSWVLSM [V6L],3.28
5,LGCYAFYSLLYLEHKGWYSWVLSM [V6F],3.45
6,LGCYAVYHLLYLEHKGWYSWVLSM [S8H],2.55
7,LGCYAVYTLLYLEHKGWYSWVLSM [S8T],2.09
8,LGCYAVYNLLYLEHKGWYSWVLSM [S8N],4.1
9,LGCYAVYSLLYLEHKGWYSWVLNM [S23N],2.27
10,LGCYAVYSLLYLEHKGWYKWVLSM [S19K],3.27
11,LGCYAVYSLLYLEHKGWYAWVLSM [S19A],4.22
12,LGCYAVYSLLYLEHKGWYIWVLSM [S19I],3.66
13,LGCYAVYSLLYLEHKGWYSWHLSM [V21H],2.45
14,LGCYAVYSLLYLEHKGWYSWWLSM [V21W],3.42
15,LGCYAVYSLLYLEHKGWYSWNLSM [V21N],3.02
16,LGCYAVYSLLYLEPKGWYSWVLSM [H14P],2.6
17,LGCYAVYSLLYLEHKFWYSWVLSM [G16F],2
18,LGCYAVYSLLYLEHKHWYSWVLSM [G16H],3.98
19,LGCYAVYSLLYLEHKRWYSWVLSM [G16R],1.42
20,LGCYAVYSLLYLEHKNWYSWVLSM [G16N],2.7
21,LGCYAVYSLLYNEHKGWYSWVLSM [L12N],4.59
22,LGCYAVYSLLYPEHKGWYSWVLSM [L12P],3.25

row,Variant,protein stability index
1,DGCYAVYSLLYLEHKGWYSWVLSM [L1D],2.85
2,TGCYAVYSLLYLEHKGWYSWVLSM [L1T],3.54
3,LGCYAVYSLLYLEHKGWRSWVLSM [Y18R],3.76
4,LGCYAVYSLLYLEHKGWDSWVLSM [Y18D],3.53
5,LGHYAVYSLLYLEHKGWYSWVLSM [C3H],2.58
6,LGCYAVPSLLYLEHKGWYSWVLSM [Y7P],3.71
7,LGCYDVYSLLYLEHKGWYSWVLSM [A5D],2.12
8,LGCYAVYSLLYLEHKGWYSTVLSM [W20T],2.45
9,LGCYAVYSLLYLEHKGWYSDVLSM [W20D],2.14
10,LGCYAVYSLLYLEHKGWYSLVLSM [W20L],2.91
11,LGCYAVYSLLYLEHKGWYSPVLSM [W20P],3.37
12,LGCYAVYSLLYLEHKGWYSWVLSE [M24E],5.08
13,LGCYAVYSLLYLEHKGWYSWVLSD [M24D],2.05
14,LGCYAVYSLLYLEHKGWYSWVLSV [M24V],3.57
15,LGCYAVYSLLYLEHKGWYSWVLSN [M24N],2.39
16,LGCYAVYSLLYLEHKGWYSWVLSW [M24W],3.77
17,LGCYAVYSGLYLEHKGWYSWVLSM [L9G],1.77
18,LGCYAVYSNLYLEHKGWYSWVLSM [L9N],3.39
19,LGCYAVYSLLSLEHKGWYSWVLSM [Y11S],1.87
20,LGCYAVYSLLYLYHKGWYSWVLSM [E13Y],2.12
21,LGCYAVYSLLYLEHPGWYSWVLSM [K15P],3.92

# Variants of: B2
# Experiment: as above
# Conditions: c terminus: a fixed tail appended
row,Variant,protein stability index
1,DLSRLVNCLTGEGEDTRLSAMEMK [S21M],2.98
2,DLSRLVNCLTGEGEDTRLSAHEMK [S21H],3.01
3,DLSRLVNCLTGEGEDTRLSAREMK [S21R],1.9
4,DLSRLVNCLTGEGEDTRLSADEMK [S21D],3.57
5,DLSRLVNCLTGEGEDTRLSACEMK [S21C],2.63
6,VLSRLVNCLTGEGEDTRLSASEMK [D1V],1.95
7,QLSRLVNCLTGEGEDTRLSASEMK [D1Q],3.56
8,YLSRLVNCLTGEGEDTRLSASEMK [D1Y],2.43
9,HLSRLVNCLTGEGEDTRLSASEMK [D1H],3.25
10,GLSRLVNCLTGEGEDTRLSASEMK [D1G],3.69
11,ALSRLVNCLTGEGEDTRLSASEMK [D1A],2.84
12,TLSRLVNCLTGEGEDTRLSASEMK [D1T],2.06
13,DLSRLVNCLTGEAEDTRLSASEMK [G13A],3.62
14,DLSRLVNCLTGEREDTRLSASEMK [G13R],2.89
15,DLSRLVNCLTGELEDTRLSASEMK [G13L],2.53
16,DLSRLVNCLTGEIEDTRLSASEMK [G13I],3.55
17,DKSRLVNCLTGEGEDTRLSASEMK [L2K],4.56
18,DASRLVNCLTGEGEDTRLSASEMK [L2A],4.39
19,DSSRLVNCLTGEGEDTRLSASEMK [L2S],5
20,DMSRLVNCLTGEGEDTRLSASEMK [L2M],5.13
21,DWSRLVNCLTGEGEDTRLSASEMK [L2W],2.89
22,DLSRLVNCLTGEGEMTRLSASEMK [D15M],1.61
23,DLSRLVNCLTGEGEFTRLSASEMK [D15F],2.32
24,DLSRLVNCLTGEGENTRLSASEMK [D15N],1.77
25,DLSRLVNCLTGEGEDTRLWASEMK [S19W],2.26
26,DLSRLVNCLTGEGEDTRLMASEMK [S19M],2.57

row,Variant,protein stability index
1,DLSRLVNCLTGEGEDTRLPASEMK [S19P],3.61
2,DLSRLVNCLTGEGEDTRLEASEMK [S19E],3.61
3,DLSRLVNCLTGEGEDTRLNASEMK [S19N],4.35
4,DLSRLVNCLTGEGEDTRLIASEMK [S19I],2.62
5,DLSRLVNCLTLEGEDTRLSASEMK [G11L],2.88
6,DLSRLVNCLTSEGEDTRLSASEMK [G11S],3.55
7,DLSRLVNCLTMEGEDTRLSASEMK [G11M],2.84
8,DLSRLVNCLTEEGEDTRLSASEMK [G11E],3.98
9,DLSRLVNCLTHEGEDTRLSASEMK [G11H],3.81
10,DLSRLVNCLTWEGEDTRLSASEMK [G11W],2.34
11,DLSRLVNCLTCEGEDTRLSASEMK [G11C],3.16
12,DLSRLVNCLTGEGEDTMLSASEMK [R17M],3.08
13,DLSRLVNCLTGEGEDTWLSASEMK [R17W],2.33
14,DLSRLVNCLTGEGEDTKLSASEMK [R17K],2.82
15,DLSRLVNCLTGEGEDTILSASEMK [R17I],2.97
16,DLSRLVNCLTGEGEDTDLSASEMK [R17D],4.12
17,DLSRLVNCLTGEGEDTLLSASEMK [R17L],2.59
18,DLSRLVNCLTGEGEDTSLSASEMK [R17S],2.84
19,DLSRLVNCLTGEGEDTRLSDSEMK [A20D],2.92
20,DLSRLVNCLTGEGEDTRLSGSEMK [A20G],3.69
21,DLSRLVNCLTGEGEDTRLSFSEMK [A20F],1.8
22,DLSRLVNCLTGEGEDTRLSESEMK [A20E],4.11
23,DLSRLVNCLTGEGEDTRLSHSEMK [A20H],2.98
24,DLSRLVNCLTGEGEDTRLSYSEMK [A20Y],2.15
25,DLSRLVNCLTGEGEDTRLSSSEMK [A20S],2.9
